Laboratory results taken from US20080085279A1.
Like-named read-outs stand apart in the source and are kept apart here.

Columns and labels:
[1] = biological target: Recombinant MDM2 (baculovirus-expressed, pBlueBacHis2:MDM2) (human) (UniProt Q00987); assay: cell-based or functional assay
[2] = biological target: Recombinant MDM2 (baculovirus-expressed, pBlueBacHis2:MDM2) (human) (UniProt Q00987); assay: cell-based or functional assay; remark: listed apart in the source

Sequence of Recombinant MDM2 (baculovirus-expressed, pBlueBacHis2:MDM2) (human) (Q00987 whole entry): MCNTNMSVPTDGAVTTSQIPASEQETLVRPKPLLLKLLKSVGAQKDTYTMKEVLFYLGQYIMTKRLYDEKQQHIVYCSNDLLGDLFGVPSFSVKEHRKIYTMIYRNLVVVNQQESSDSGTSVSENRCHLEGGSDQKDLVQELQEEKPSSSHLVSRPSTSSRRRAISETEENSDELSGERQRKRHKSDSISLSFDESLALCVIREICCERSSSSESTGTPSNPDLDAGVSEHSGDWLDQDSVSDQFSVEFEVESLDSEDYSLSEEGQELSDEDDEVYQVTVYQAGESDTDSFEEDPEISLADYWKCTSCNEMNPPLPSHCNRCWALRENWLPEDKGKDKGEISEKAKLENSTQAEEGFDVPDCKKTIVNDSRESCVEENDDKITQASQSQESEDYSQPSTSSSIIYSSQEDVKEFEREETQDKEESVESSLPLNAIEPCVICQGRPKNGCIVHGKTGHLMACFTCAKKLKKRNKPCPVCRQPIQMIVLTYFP

MDM2 auto-ubiquitination in vitro (molar ratio MTBP:MDM2) [1]: 3
MDM2 auto-ubiquitination in vitro (molar ratio MTBP:MDM2) [2]: 10
Substance: Recombinant hMTBP (bacterially expressed from pQE-hMTBP) (from UniProt Q96DY7 1-904)
